According to patent KR20180129514A (dated 2018):

Biological target: T1, mCherry H-RAS G12V (NIH3T3 세포주에서 발현) (UniProt P01112 1-186)
T1 construct: whole, on cells; Intracellular, at the inner face of the cell membrane; also called 세포내 활성화된 H-RAS G12V 돌연변이; 활성화된 RAS; not shown: mCherry red fluorescent protein
Test: confocal microscopy, overlap in NIH3T3 cells expressing mCherry H-RAS G12V

B1: 세포질 침투 항체 TMab4 (antibody, V domains shown)
VH: EVQLVESGGGLVQPGGSLRLSCAASGYTFTSYVMHWVRQAPGKGLEWVSAINPYNDGNYYADSVKGRFTISRDNSRKTLYLQMNSLRAEDTAVYYCARGAYKRGYAMDYWGQGTTVTVSS
VL: DLVMTQSPSSLSASVGDRVTITCKSSQSLFNSRTRKNYLAWYQQKPGKAPKLLIYWASTRESGVPSRFSGSGSGTDFTLTISSLQPEDFATYYCQQYYYHMYTFGQGTKVEIKR
notes: Full IgG format (CH1-hinge-CH2-CH3 and CL, detected with anti-human Fc); also called cytotransmab; CT
B1: no binding (tested: 2 μM).
